Laboratory results: article PMC12751054, “Investigating the conformational landscape of human histidine-rich glycoprotein using amide HDX-MS” (Biochemical Journal, 2025)
One block for each molecule: values may come before it.

What was measured:
[1] = target: Histidine-rich glycoprotein (HRG), enzymatically deglycosylated, purified from human pooled plasma (human) (UniProt P04196); assay: mass photometry; HRG at 200 nM in 50 mM Tris-HCl, 140 mM NaCl, 2 mM EDTA, pH 7.4; TwoMP (Refeyn); monomer and dimer
[2] = target: Histidine-rich glycoprotein (HRG), enzymatically deglycosylated, purified from human pooled plasma (human) (UniProt P04196); assay: mass photometry; HRG at 50 nM in 50 mM Tris-HCl, 140 mM NaCl, 2 mM EDTA, pH 7.4; TwoMP (Refeyn); monomer and dimer
[3] = target: the molecule itself; assay: as above

stoichiometry N [1]: 2 | stoichiometry N [2]: 2
Molecule: Histidine-rich glycoprotein (HRG), enzymatically deglycosylated, purified from human pooled plasma (from UniProt P04196 19-525) (natural protein)

B1: Histidine-rich glycoprotein (HRG), native (fully glycosylated), purified from human pooled plasma (natural protein, UniProt P04196 19-525, looked up)
chain: VSPTDCSAVEPEAEKALDLINKRRRDGYLFQLLRIADAHLDRVENTTVYYLVLDVQESDCSVLSRKYWNDCEPPDSRRPSEIVIGQCKVIATRHSHESQDLRVIDFNCTTSSVSSALANTKDSPVLIDFFEDTERYRKQANKALEKYKEENDDFASFRVDRIERVARVRGGEGTGYFVDFSVRNCPRHHFPRHPNVFGFCRADLFYDVEALDLESPKNLVINCEVFDPQEHENINGVPPHLGHPFHWGGHERSSTTKPPFKPHGSRDHHHPHKPHEHGPPPPPDERDHSHGPPLPQGPPPLLPMSCSSCQHATFGTNGAQRHSHNNNSSDLHPHKHHSHEQHPHGHHPHAHHPHEHDTHRQHPHGHHPHGHHPHGHHPHGHHPHGHHPHCHDFQDYGPCDPPPHNQGHCCHGHGPPPGHLRRRGPGKGPRPFHCRQIGSVYRLPPLRKGEVLPLPEANFPSFPLPHHKHPLKPDNQPFPQSVSESCPGKFKSGFPQVSMFFTHTFPK
modifications: N-linked glycans at Asn63, Asn125, Asn202 and Asn344; O-linked glycans at Thr273 and Thr274
notes: Histidine-rich glycoprotein, human, UniProt P04196; printed residue numbers run to 525; Pooled plasma; also called native HRG; plasma-derived human HRG
stoichiometry N [3]: 2
